From the supplement of paper PMC9112550, “Optimization of the antimicrobial peptide Bac7 by deep mutational scanning” (BMC Biology, 2022)

Each sequence was assayed on Escherichia coli TOP10 (assay: shrunken log2 fold change of peptide-encoding DNA abundance (4.5 h post-induction vs induction); higher = less antimicrobial activity (less host growth inhibition)). Details: time post-induction: 4.5 h; library: site-saturation at positions 5, 18, 19, 20.
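Further: peptides expressed intracellularly from a pBAD plasmid library in pooled LB shake-flask culture, induced with 0.3% L-arabinose, DNA abundance read by NGS, three biological replicates, DESeq2 with apeglm shrinkage.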

Sequence	shrunken log2 fold change
RRIRARPPRLPRPRPRPTNHPRP	-0.181
RRIRNRPPRLPRPRPRPSEGPRP	-0.0276
RRIRLRPPRLPRPRPRPGFSPRP	-0.161
RRIRKRPPRLPRPRPRPHEYPRP	-0.091
RRIRGRPPRLPRPRPRPKYAPRP	0.501
RRIRERPPRLPRPRPRPESKPRP	-0.145
RRIRPRPPRLPRPRPRPMTSPRP	0.0205
RRIRQRPPRLPRPRPRPTWCPRP	0.171
RRIRLRPPRLPRPRPRPAVEPRP	-0.0223
RRIRWRPPRLPRPRPRPWSEPRP	-0.206
RRIRIRPPRLPRPRPRPRFAPRP	0.129
RRIRVRPPRLPRPRPRPKKNPRP	0.28
RRIRWRPPRLPRPRPRPTMWPRP	0.615
RRIRYRPPRLPRPRPRPHECPRP	0.0244
RRIRTRPPRLPRPRPRPPMGPRP	0.271
RRIRMRPPRLPRPRPRPCLEPRP	0.126
RRIRDRPPRLPRPRPRPNFYPRP	-0.109
RRIRFRPPRLPRPRPRPVLSPRP	-0.0531
RRIRNRPPRLPRPRPRPTKVPRP	-0.153
RRIRPRPPRLPRPRPRPWKRPRP	-0.0317
RRIRFRPPRLPRPRPRPTAFPRP	0.0899
RRIRIRPPRLPRPRPRPKSVPRP	-0.0925
RRIRHRPPRLPRPRPRPVYIPRP	-0.0204
RRIRFRPPRLPRPRPRPNQAPRP	0.138
RRIRYRPPRLPRPRPRPPCYPRP	-0.378

Sequence	shrunken log2 fold change
RRIRTRPPRLPRPRPRPHKYPRP	-0.295
RRIRDRPPRLPRPRPRPSRDPRP	0.00173
RRIRARPPRLPRPRPRPQPTPRP	0.781
RRIRERPPRLPRPRPRPTLDPRP	0.149
RRIRLRPPRLPRPRPRPSPAPRP	0.254
RRIRKRPPRLPRPRPRPYLAPRP	-0.295
RRIRHRPPRLPRPRPRPVPLPRP	-0.396
RRIRYRPPRLPRPRPRPAYDPRP	-0.236
RRIRKRPPRLPRPRPRPATQPRP	0.958
RRIRFRPPRLPRPRPRPKCTPRP	-0.243
RRIRARPPRLPRPRPRPPCAPRP	0.598
RRIRIRPPRLPRPRPRPGYVPRP	-0.181
RRIRYRPPRLPRPRPRPAKFPRP	-0.331
RRIRGRPPRLPRPRPRPQDNPRP	0.0555
RRIRFRPPRLPRPRPRPVGIPRP	-0.135
RRIRFRPPRLPRPRPRPLYSPRP	-0.211
RRIRKRPPRLPRPRPRPETNPRP	2.35
RRIRERPPRLPRPRPRPHQQPRP	0.119
RRIRCRPPRLPRPRPRPFILPRP	-0.898
RRIRTRPPRLPRPRPRPIIEPRP	-0.565
RRIRERPPRLPRPRPRPNFDPRP	-0.145
RRIRYRPPRLPRPRPRPEKSPRP	-0.0559
RRIRQRPPRLPRPRPRPPHKPRP	1.25
RRIRARPPRLPRPRPRPYTSPRP	0.0229
RRIRMRPPRLPRPRPRPPMNPRP	0.315

Sequence	shrunken log2 fold change
RRIRMRPPRLPRPRPRPIWPPRP	0.769
RRIRGRPPRLPRPRPRPIRFPRP	0.0151
RRIRYRPPRLPRPRPRPYPNPRP	-0.36
RRIRMRPPRLPRPRPRPILWPRP	0.00288
RRIRLRPPRLPRPRPRPIKQPRP	-0.00202
RRIRWRPPRLPRPRPRPWRWPRP	0.0969
RRIRERPPRLPRPRPRPGGGPRP	0.855
RRIRSRPPRLPRPRPRPWYAPRP	-0.253
RRIRMRPPRLPRPRPRPHASPRP	0.116
RRIRNRPPRLPRPRPRPNSNPRP	-0.744
RRIRNRPPRLPRPRPRPGCHPRP	-0.318
RRIRDRPPRLPRPRPRPPKFPRP	-0.154
RRIRFRPPRLPRPRPRPKEDPRP	0.122
RRIRERPPRLPRPRPRPWASPRP	-0.00133
RRIRYRPPRLPRPRPRPGAGPRP	0.0814
RRIRERPPRLPRPRPRPKSPPRP	0.163
RRIRTRPPRLPRPRPRPYSDPRP	-0.148
RRIRHRPPRLPRPRPRPTQIPRP	0.51
RRIRRRPPRLPRPRPRPFPGPRP	-0.143
RRIRKRPPRLPRPRPRPNDCPRP	-0.0159
RRIRKRPPRLPRPRPRPVMAPRP	0.588
RRIRTRPPRLPRPRPRPRPHPRP	0.296
RRIRARPPRLPRPRPRPTTDPRP	0.745
RRIRGRPPRLPRPRPRPCYHPRP	-0.345
RRIRARPPRLPRPRPRPSMKPRP	-0.037
